The target in the data set is AGO2 (Argonaute 2) (UniProt Q9UKV8). In words: single-molecule FRET. To be noted: guide 5' phosphate; internal amino-C6 U18; single-molecule FRET on immobilized biotinylated target RNA; 100 nM AUF1 where added; buffer, salt, pH and temperature not in the material.

We go through two sequences from paper PMC5449627.

Sequence of AGO2 (Argonaute 2) (Q9UKV8 whole entry): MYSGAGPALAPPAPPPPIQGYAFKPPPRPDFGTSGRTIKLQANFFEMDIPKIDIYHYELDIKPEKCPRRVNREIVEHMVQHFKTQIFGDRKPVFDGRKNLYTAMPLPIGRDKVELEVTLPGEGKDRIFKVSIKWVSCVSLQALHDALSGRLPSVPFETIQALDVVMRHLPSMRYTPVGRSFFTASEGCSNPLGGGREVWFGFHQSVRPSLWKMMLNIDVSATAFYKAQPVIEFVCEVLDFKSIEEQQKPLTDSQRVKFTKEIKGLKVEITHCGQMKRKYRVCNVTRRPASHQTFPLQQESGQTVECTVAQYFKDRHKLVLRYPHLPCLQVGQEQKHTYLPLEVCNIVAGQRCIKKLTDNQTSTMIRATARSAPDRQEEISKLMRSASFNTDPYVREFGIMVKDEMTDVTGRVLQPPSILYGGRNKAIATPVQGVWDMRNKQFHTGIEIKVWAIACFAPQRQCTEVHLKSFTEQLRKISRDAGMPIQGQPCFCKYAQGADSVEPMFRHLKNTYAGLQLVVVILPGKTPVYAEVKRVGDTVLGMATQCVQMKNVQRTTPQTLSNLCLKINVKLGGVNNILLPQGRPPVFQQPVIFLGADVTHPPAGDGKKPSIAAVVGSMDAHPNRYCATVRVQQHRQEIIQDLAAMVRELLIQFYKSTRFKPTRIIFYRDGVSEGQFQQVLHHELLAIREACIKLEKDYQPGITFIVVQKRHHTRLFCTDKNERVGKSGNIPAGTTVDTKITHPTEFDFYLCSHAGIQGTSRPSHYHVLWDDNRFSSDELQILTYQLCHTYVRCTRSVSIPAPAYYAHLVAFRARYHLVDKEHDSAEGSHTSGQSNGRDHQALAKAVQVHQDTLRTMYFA

As for “UGAGGUAGUAGGUUGUGUGGUU / UAACCACACUGUUGACUACCUCACCCCCCCCCCCCCCCC [let-7b guide / POLR2D RNA with let-7b WT]”, the binding signal (% decrease of binding rate) was 42.

Regarding “UGAGGUAGUAGGUUGUGUGGUU / UAACCACACUGUUGACUACCUCAUUCCUGGUUUUUGGCCUCCACAUCAUCUUUUUUCUUAAUAUUUCAUCCCCCCCCCCCCCCCC [let-7b guide / POLR2D RNA with let-7b WT and AUF1 site]”, the binding signal (% decrease of binding rate) was 78.
